{"source": "paper PMC4717258", "about": "“Sulfoxides, Analogues of L-Methionine and L-Cysteine As Pro-Drugs against Gram-Positive and Gram-Negative Bacteria” (Acta Naturae, 2015)", "molecules": {"B1": {"name": "C. sporogenes MGL (Clostridium sporogenes) (protein)", "chain": "MENIEKMGFATKAIHGGHIGDKQFGSLATPIYQTSTFIFDSAEQGGRRFAGEESGYIYSRLGNPTSTEVENKLALLEGGEAAVVAASGMGAIAASLWSALKSGDHVVASDTLYGCTFALLNHGLTRYGVEVTFVDVSNLDEVKNALKPNTKVVYLETPANPTLKVTDIRKISNMVHESNKECFVFVDNTFCTPYIQRPLELGADVVVHSATKYLNGHGDVIAGFAVGKEEFINQVKLFGIKDMTGSVTGPFESFLIIRGMKTLQLRMEKHCKNAMEVAKFLEAHPAVEKVYYPGLESFQYYQLAREQMKLPGAMISFELKGGVEEGKIVMNNVRLATLAVSLGDSETLIQHPASMTHSPYTAEERKAAGISDGLVRLSVGLEDAEDIINDLKQALDLIVK", "notes": "subunit 43 kDa; PLP enzyme"}}, "key": {"C. sporogenes MGL [1]": {"target": "T1, C. sporogenes MGL (Clostridium sporogenes, UniProt A0A7X5SZI3)", "T1 construct": "gene megL; subunit 43 kDa; PLP enzyme", "T1 sequence (A0A7X5SZI3 1-400)": "B1 chain", "experiment": "inhibition of L-Met γ-elimination, NADH-coupled with D-2-hydroxyisocaproate dehydrogenase, Dixon plot", "format": "biochemical", "excerpt": "inhibition of L-Met γ-elimination, NADH-coupled with D-2-hydroxyisocaproate dehydrogenase, Dixon plot on C. sporogenes MGL"}, "C. sporogenes MGL [2]": {"target": "T1, C. sporogenes MGL", "experiment": "absorption spectrum of holoenzyme, lognormal deconvolution of internal aldimine bands", "format": "binding", "conditions": "covalent internal aldimine; pH 8.0, 25 °C, working buffer without PLP"}, "C. sporogenes MGL [3]": {"target": "T1, C. sporogenes MGL", "experiment": "γ-elimination steady-state kinetics, NADH-coupled with D-2-hydroxyisocaproate dehydrogenase, […] nm", "format": "biochemical", "conditions": "pH 8.0, 100 mM potassium phosphate, 0.1 mM PLP, 1 mM DTT, 1 mM EDTA, 30 °C"}, "purified protein [4]": {"substrate": "CSCC[C@H](N)C(=O)O", "experiment": "purified protein", "format": "biochemical, Clostridium sporogenes", "conditions": "pH 8.0, 100 mM potassium phosphate, 0.1 mM PLP, 1 mM DTT, 1 mM EDTA, 30 °C"}, "purified protein [5]": {"substrate": "CC(=O)OC[C@H](N)C(=O)O", "experiment": "purified protein", "format": "biochemical, Clostridium sporogenes", "conditions": "pH 8.0, 100 mM potassium phosphate, 0.1 mM PLP, 1 mM DTT, 1 mM EDTA, 30 °C"}, "purified protein [6]": {"substrate": "CC[S+]([O-])C[C@H](N)C(=O)O", "experiment": "purified protein", "format": "biochemical, Clostridium sporogenes", "conditions": "pH 8.0, 100 mM potassium phosphate, 0.1 mM PLP, 1 mM DTT, 1 mM EDTA, 30 °C"}, "purified protein [7]": {"substrate": "CC[S+]([O-])CC[C@H](N)C(=O)O", "experiment": "purified protein", "format": "biochemical, Clostridium sporogenes", "conditions": "pH 8.0, 100 mM potassium phosphate, 0.1 mM PLP, 1 mM DTT, 1 mM EDTA, 30 °C"}, "purified protein [8]": {"substrate": "CC(=O)OCC[C@H](N)C(=O)O", "experiment": "purified protein", "format": "biochemical, Clostridium sporogenes", "conditions": "pH 8.0, 100 mM potassium phosphate, 0.1 mM PLP, 1 mM DTT, 1 mM EDTA, 30 °C"}, "purified protein [9]": {"substrate": "CCSC[C@H](N)C(=O)O", "experiment": "purified protein", "format": "biochemical, Clostridium sporogenes", "conditions": "pH 8.0, 100 mM potassium phosphate, 0.1 mM PLP, 1 mM DTT, 1 mM EDTA, 30 °C"}, "purified protein [10]": {"substrate": "C[S+]([O-])CC[C@H](N)C(=O)O", "experiment": "purified protein", "format": "biochemical, Clostridium sporogenes", "conditions": "pH 8.0, 100 mM potassium phosphate, 0.1 mM PLP, 1 mM DTT, 1 mM EDTA, 30 °C"}, "purified protein [11]": {"substrate": "C=CC[S+]([O-])C[C@H](N)C(=O)O", "experiment": "purified protein", "format": "biochemical, Clostridium sporogenes", "conditions": "pH 8.0, 100 mM potassium phosphate, 0.1 mM PLP, 1 mM DTT, 1 mM EDTA, 30 °C"}}, "data": [{"molecule": "CCC[C@H](N)C(=O)O", "note": "[L-Nva]", "values": [{"measurement": "Ki", "setting": "C. sporogenes MGL [1]", "result": 1.9, "unit": "mM"}]}, {"molecule": "Cc1ncc(COP(=O)(O)O)c(C=O)c1O", "note": "[PLP]", "values": [{"measurement": "absorption spectrum of holoenzyme, lognormal deconvolution of internal aldimine", "setting": "C. sporogenes MGL [2]", "result": "The ionic form of the internal aldimine and tautomeric equilibrium are almost the same"}]}, {"molecule": "CC[C@H](N)C(=O)O", "note": "[L-Abu]", "values": [{"measurement": "Ki", "setting": "C. sporogenes MGL [1]", "result": 2, "unit": "mM"}]}, {"molecule": "C[C@H](N)C(=O)O", "note": "[L-Ala]", "values": [{"measurement": "Ki", "setting": "C. sporogenes MGL [1]", "result": 1.5, "unit": "mM"}]}, {"molecule": "CCSCC[C@H](N)C(=O)O", "note": "[S-Et-L-Hcy]", "values": [{"measurement": "Km", "setting": "C. sporogenes MGL [3]", "result": 240, "unit": "µM"}]}, {"molecule": "CCCC[C@H](N)C(=O)O", "note": "[L-Nle]", "values": [{"measurement": "Ki", "setting": "C. sporogenes MGL [1]", "result": 0.37, "unit": "mM"}]}, {"molecule": "B1", "values": [{"measurement": "Km", "setting": "purified protein [4]", "result": 0.60, "unit": "mM"}, {"measurement": "kcat", "setting": "purified protein [4]", "result": 21.6, "unit": "s⁻¹"}, {"measurement": "kcat/Km", "setting": "purified protein [4]", "result": 36000, "unit": "M⁻¹ s⁻¹"}, {"measurement": "Km", "setting": "purified protein [5]", "result": 8.01, "unit": "mM"}, {"measurement": "Km", "setting": "purified protein [6]", "result": 0.33, "unit": "mM"}, {"measurement": "kcat", "setting": "purified protein [6]", "result": 1.39, "unit": "s⁻¹"}, {"measurement": "kcat/Km", "setting": "purified protein [6]", "result": 4210, "unit": "M⁻¹ s⁻¹"}, {"measurement": "Km", "setting": "purified protein [7]", "result": 0.60, "unit": "mM"}, {"measurement": "kcat", "setting": "purified protein [7]", "result": 0.48, "unit": "s⁻¹"}, {"measurement": "kcat/Km", "setting": "purified protein [7]", "result": 800, "unit": "M⁻¹ s⁻¹"}, {"measurement": "Km", "setting": "purified protein [8]", "result": 3.18, "unit": "mM"}, {"measurement": "kcat", "setting": "purified protein [8]", "result": 37.3, "unit": "s⁻¹"}, {"measurement": "kcat/Km", "setting": "purified protein [8]", "result": 11700, "unit": "M⁻¹ s⁻¹"}, {"measurement": "Km", "setting": "purified protein [9]", "result": 0.43, "unit": "mM"}, {"measurement": "kcat", "setting": "purified protein [9]", "result": 6.53, "unit": "s⁻¹"}, {"measurement": "kcat/Km", "setting": "purified protein [9]", "result": 15200, "unit": "M⁻¹ s⁻¹"}, {"measurement": "Km", "setting": "purified protein [10]", "result": 11.39, "unit": "mM"}, {"measurement": "kcat", "setting": "purified protein [10]", "result": 21.7, "unit": "s⁻¹"}, {"measurement": "kcat/Km", "setting": "purified protein [10]", "result": 1900, "unit": "M⁻¹ s⁻¹"}, {"measurement": "Km", "setting": "purified protein [11]", "result": 1.43, "unit": "mM"}, {"measurement": "kcat", "setting": "purified protein [11]", "result": 11.4, "unit": "s⁻¹"}, {"measurement": "kcat/Km", "setting": "purified protein [11]", "result": 7990, "unit": "M⁻¹ s⁻¹"}]}]}
